Source: article PMC4077619, “Split luciferase complementation assay to detect regulated protein-protein interactions in rice protoplasts in a large-scale format” (Rice, 2014)

Target: T1, CRLuc-H2B (Arabidopsis HISTONE 2B fused to the C-terminal fragment of Renilla luciferase) (Arabidopsis, UniProt Q9FFC0 1-145)
T1 construct: Arabidopsis HISTONE 2B (H2B), locus AT5G22880; cDNA inserted in a pDuEx vector; source: rice protoplasts, transformed (PEG) with a pDuEx vector (35S promoter), in cells
Experiment: split reporter (BiFC, NanoBiT); split Renilla luciferase complementation in living rice protoplasts, 96-well plate, W5 buffer, ViviRen substrate, RLU read 16 h after transformation; no hormone added (before the hormone or with W5 buffer only); H2A-H2B also tested with GA3 (Figure S1), RLU not increased
Conditions: partners not purified

T1 sequence (Q9FFC0 whole entry, the tested form may be a part): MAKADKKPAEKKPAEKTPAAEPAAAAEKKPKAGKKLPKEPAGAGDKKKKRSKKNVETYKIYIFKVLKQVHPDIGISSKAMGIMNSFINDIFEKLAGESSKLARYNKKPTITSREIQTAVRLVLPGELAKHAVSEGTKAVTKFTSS

fold RLU over a non-interaction protein pair: 10 fold
fold RLU over mock transformed protoplasts: 21 fold
B1: NRLuc-H2A (Arabidopsis HISTONE 2A fused to the N-terminal fragment of Renilla luciferase) (natural protein)
chain: not shown
notes: Arabidopsis HISTONE 2A (H2A), locus AT4G27230; cDNA inserted in a pDuEx vector; source: rice protoplasts, transformed (PEG) with a pDuEx vector (35S promoter), in cells
